Measured values reported in patent US20220348661A1 (HARBOUR BIOMED SHANGHAI, published 2022).

T1: human B7H4 (human, UniProt Q7Z7D3 25-282)
T1 construct: whole, on cells; also called B7H4 on tumor cell SK-BR-3
T1 sequence (looked up): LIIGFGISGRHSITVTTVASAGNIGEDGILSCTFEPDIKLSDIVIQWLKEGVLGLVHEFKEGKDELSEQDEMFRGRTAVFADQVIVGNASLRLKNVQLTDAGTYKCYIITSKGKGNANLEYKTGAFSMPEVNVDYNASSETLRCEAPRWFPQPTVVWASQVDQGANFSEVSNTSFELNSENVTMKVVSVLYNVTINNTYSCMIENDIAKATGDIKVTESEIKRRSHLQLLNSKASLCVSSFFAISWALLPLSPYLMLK


Key:
human ROR1 = target: T2, human ROR1 (human, UniProt Q01973 30-937); assay: flow cytometry on Panc-1 cells expressing human ROR1
T2 construct: whole, on cells; also called ROR1 on tumor cell Panc-1
T2 sequence (Q01973 30-937): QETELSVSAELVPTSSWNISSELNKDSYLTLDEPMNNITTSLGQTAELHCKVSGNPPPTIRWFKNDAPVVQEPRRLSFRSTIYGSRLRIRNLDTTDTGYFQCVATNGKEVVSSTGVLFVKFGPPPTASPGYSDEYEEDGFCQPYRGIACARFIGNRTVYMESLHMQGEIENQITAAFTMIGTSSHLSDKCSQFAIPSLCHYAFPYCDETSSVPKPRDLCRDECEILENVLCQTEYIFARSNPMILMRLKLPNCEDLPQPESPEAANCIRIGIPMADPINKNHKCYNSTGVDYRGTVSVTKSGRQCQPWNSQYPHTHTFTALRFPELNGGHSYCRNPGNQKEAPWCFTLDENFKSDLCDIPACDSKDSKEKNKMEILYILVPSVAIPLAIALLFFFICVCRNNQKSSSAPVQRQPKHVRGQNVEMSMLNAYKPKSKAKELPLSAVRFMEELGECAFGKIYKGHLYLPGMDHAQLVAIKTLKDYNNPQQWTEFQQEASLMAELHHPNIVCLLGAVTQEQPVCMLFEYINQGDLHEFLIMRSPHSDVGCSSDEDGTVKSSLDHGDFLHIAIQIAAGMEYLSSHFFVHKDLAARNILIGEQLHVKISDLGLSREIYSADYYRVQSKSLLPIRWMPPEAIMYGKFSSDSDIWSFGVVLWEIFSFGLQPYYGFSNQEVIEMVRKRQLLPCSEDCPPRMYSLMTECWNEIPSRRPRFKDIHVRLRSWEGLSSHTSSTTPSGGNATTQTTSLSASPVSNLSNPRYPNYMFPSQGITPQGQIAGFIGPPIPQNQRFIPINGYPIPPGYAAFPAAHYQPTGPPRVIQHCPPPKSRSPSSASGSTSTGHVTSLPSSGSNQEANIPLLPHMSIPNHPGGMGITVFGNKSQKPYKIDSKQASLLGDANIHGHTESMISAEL
Procedure: (§1) This Example investigates the ability of the bispecific antibody binding tumor cell Panc-1(ATCC, CRL-1469) expressing human ROR1. Specifically, collected cell Panc-1 suspension, adjusted the cell density to 1×10⁶/ml, and inoculated them at 100 μl/well in a 96 well V-bottom plate (Corning, #3894); subsequently, the antibody to be tested with a concentration 2-fold of final concentration obtained by 3-fold gradient dilution was added at volume of 100 μl/well. Cells were incubated at 4° C. in the dark for 2 hours. Afterwards, the cells were rinsed twice with 100 μl/well of pre-chilled PBS, centrifuged at 500 g, 4° C. for 5 minutes. The supernatant was discarded. Then added 100 μl/well of fluorescent secondary antibody Alexa Fluor 488 AffiniPure Goat Anti-Human IgG, Fcγ fragment specific (Jackson ImmunoResearch, #109-545-098), and incubated the cells from light at 4° C. in the dark for 1 hour. Then the cells were rinsed twice with 100 μl/well of pre-chilled PBS, centrifuged at 500 g, for 5 minutes. The supernatant was discarded. Finally, the cells were resuspended with 200 μL/well of pre-chilled PBS. The fluorescent luminescence signal value were read by flow cytometry (BD FACS CANTOII or ACEA NovoCyte), and the resulted data were processed and analyzed by software FlowJo v10 (FlowJo, LLC). […]

human B7H4 = target: T1, human B7H4; assay: flow cytometry on SK-BR-3 cells expressing human B7H4
Procedure: as §1, with “SK-BR-3 (ATCC, HTB-30)” for “Panc-1(ATCC, CRL-1469)”, “B7H4.” for “ROR1.”, “SK-BR-3” for “Panc-1”, “of” for “of fluorescent”

Binder | binding result (human ROR1) | binding result (human B7H4)
ROR1 antibody PR000374 (antibody, human IgG1, kappa, V domains shown, variable region derived from WO2016094873; also called recombinant IgG antibody PR000374) VH: EVQLVESGGGLVQPGRSLRLSCTASGSDINDYPITWVRQAPGQGLEWIGFINSGGSTWYASWVKGRFTISRDDSKSIAYLQMNSLKTEDTAVYYCARGYSTYYRDFNIWGQGTLVTVSS VL: DIQMTQSPSSLSASVGDRVTINCQASQSIDSNLAWFQQKPGQPPKLLIYRASNLASGVPDRFSGSGSGTDFTLTISSLEAEDVATYYCLGGVGAVSYRTSFGGGTKVEIKR | binds | –
B7H4 antibody PR000014 (antibody, V domains shown, variable region derived from WO2016040724; also called recombinant IgG antibody PR000014) VH: EVQLVQSGAEVKKPGASVKVSCKASGYTFTSYWIGWVRQAPGQGLEWIGDIYPGGGYTNYNEKFKGRVTITRDTSTSTAYLELSSLRSEDTAVYYCARLAGSSYRGAMDSWGQGTLVTVSS VL: DIQMTQSPSSLSASVGDRVTITCKASQGFNKYVAWYQQKPGKAPKLLIYYTSTLQPGVPSRFSGSGSGRDYTLTISSLQPEDFATYYCLQYGDLLYAFGQGTKVEIKR | – | binds
